Data: patent US20230331823A1 (HENRY M JACKSON FOUNDATION FOR THE ADVANCEMENT OF MILITARY …, published 2023)
Like-named read-outs stand apart in the source and are kept apart here.

What was measured:
[1] = target: T1, SARS-CoV-2 Alpha (B.1.1.7) Spike on pseudovirions (SARS-CoV-2); assay: cell-based or functional assay
[2] = target: T2, SARS-CoV-2 Beta (B.1.351) Spike on pseudovirions (SARS-CoV-2); assay: cell-based or functional assay
[3] = target: T1, SARS-CoV-2 Alpha (B.1.1.7) Spike on …; assay: cell-based or functional assay; remark: listed apart in the source
[4] = target: T2, SARS-CoV-2 Beta (B.1.351) Spike on …; assay: cell-based or functional assay; remark: listed apart in the source
[5] = target: Spike Ferritin nanoparticle SpFN_pCoV1B-06-PL (PrefLead-S2P.1158op1-del-Ferritin) (SARS-CoV-2 Spike ectodomain fused to …); assay: BLI, Fc fusion on AHC probe, SpFN_pCoV1B-06-PL in solution

B1: ShAb01H06K (ShAb01Hole-06Knob) (bispecific antibody, V domains shown)
V domain 1: ARVDQTPRSVTKETGESLTINCVLRDSNCALSSTHWYRKKSGSTNEERILQGRRYVETVNSGSKSFSLRINDLRVEDSGTYRCKVYWGNSWQDKFCPGLGSYEYGDGTAVTVNS
V domain 2: ARVDQTPRSVTKETGESLTINCVLRDASYALGSTCWYRKKSGSTNEESISKGGRYVETVNSGSKSFSLRINDLTVEDGGTYRCGVGRGLGVGCDYPLCSYSYAACGDGTAVTVNS
pseudovirus neutralization IC50 [1]: 1.37 µg/mL
pseudovirus neutralization IC80 [1]: 2.65 µg/mL
pseudovirus neutralization IC50 [2]: 1.28 µg/mL
pseudovirus neutralization IC80 [2]: 6.17 µg/mL

B2: ShAb06H02K (ShAb06Hole-02Knob) (bispecific antibody, V domains shown)
V domain 1: ARVDQTPRSVTKETGESLTINCVLRDASYALGSTCWYRKKSGSTNEESISKGGRYVETVNSGSKSFSLRINDLTVEDGGTYRCGVGRGLGVGCDYPLCSYSYAACGDGTAVTVNS
V domain 2: ARVDQTPQTITKETGESLTINCVLRDSNCALASTDWYRKKSGSTNEESISKGGRYVETVNSGSKSFSLRINDLTVEDSGTYRCNAWDSWETRQLKCDYDVYGGGTVVTVNS
pseudovirus neutralization IC50 [1]: 0.109 µg/mL
pseudovirus neutralization IC80 [1]: 0.225 µg/mL
pseudovirus neutralization IC50 [2]: 0.18 µg/mL
pseudovirus neutralization IC80 [2]: 0.424 µg/mL

B3: ShAb01-Foldon (ShAb01 VNAR-KESlinker-Foldon-3c-His8-Strep) (VNAR)
VNAR: ARVDQTPRSVTKETGESLTINCVLRDSNCALSSTHWYRKKSGSTNEERILQGRRYVETVNSGSKSFSLRINDLRVEDSGTYRCKVYWGNSWQDKFCPGLGSYEYGDGTAVTVNK
pseudovirus neutralization IC50 [1]: 0.119 µg/mL
pseudovirus neutralization IC80 [1]: 0.328 µg/mL
pseudovirus neutralization IC50 [2]: 0.075 µg/mL
pseudovirus neutralization IC80 [2]: 0.164 µg/mL
pseudovirus neutralization IC50 [3]: 0.12 µg/mL
pseudovirus neutralization IC50 [4]: 0.07 µg/mL

B4: ShAb02-Foldon (ShAb02 VNAR-KESlinker-Foldon-3c-His8-Strep) (VNAR)
VNAR: ARVDQTPQTITKETGESLTINCVLRDSNCALASTDWYRKKSGSTNEESISKGGRYVETVNSGSKSFSLRINDLTVEDSGTYRCNAWDSWETRQLKCDYDVYGGGTVVTVNK
pseudovirus neutralization IC50 [1]: 0.035 µg/mL
pseudovirus neutralization IC80 [1]: 0.104 µg/mL
pseudovirus neutralization IC50 [2]: 0.397 µg/mL
pseudovirus neutralization IC80 [2]: 1.8 µg/mL
pseudovirus neutralization IC50 [3]: 0.04 µg/mL
pseudovirus neutralization IC50 [4]: 0.02 µg/mL

B5: MoB3-3D8_Fc chimera antibody (Fc fusion)
chain: ARVDQTPQTITKETGESLTINCVLRDSNCALASTDWYRKKSGSTNEESISKGGRYVETVNSGSKSFSLRINDLTVEDSGTYRCNAWDSWETRQLKCDYDVYGGGTVVTVN
binding result [5]: binds
